This note sets out measurements from article PMC10143966, “The Replicative DnaE Polymerase of Bacillus subtilis Recruits the Glycolytic Pyruvate Kinase (PykA) When Bound to Primed DNA Templates” (Life, 2023).

Like-named read-outs stand apart in the source and are kept apart here.

The target of data set [1] is T1, B. subtilis DnaE polymerase (B. subtilis, UniProt O34623 1-1115).
T1 construct: DnaE DNA polymerase, Bacillus subtilis; also called replicative DnaE polymerase; lagging strand DNA polymerase
T1 sequence (looked up): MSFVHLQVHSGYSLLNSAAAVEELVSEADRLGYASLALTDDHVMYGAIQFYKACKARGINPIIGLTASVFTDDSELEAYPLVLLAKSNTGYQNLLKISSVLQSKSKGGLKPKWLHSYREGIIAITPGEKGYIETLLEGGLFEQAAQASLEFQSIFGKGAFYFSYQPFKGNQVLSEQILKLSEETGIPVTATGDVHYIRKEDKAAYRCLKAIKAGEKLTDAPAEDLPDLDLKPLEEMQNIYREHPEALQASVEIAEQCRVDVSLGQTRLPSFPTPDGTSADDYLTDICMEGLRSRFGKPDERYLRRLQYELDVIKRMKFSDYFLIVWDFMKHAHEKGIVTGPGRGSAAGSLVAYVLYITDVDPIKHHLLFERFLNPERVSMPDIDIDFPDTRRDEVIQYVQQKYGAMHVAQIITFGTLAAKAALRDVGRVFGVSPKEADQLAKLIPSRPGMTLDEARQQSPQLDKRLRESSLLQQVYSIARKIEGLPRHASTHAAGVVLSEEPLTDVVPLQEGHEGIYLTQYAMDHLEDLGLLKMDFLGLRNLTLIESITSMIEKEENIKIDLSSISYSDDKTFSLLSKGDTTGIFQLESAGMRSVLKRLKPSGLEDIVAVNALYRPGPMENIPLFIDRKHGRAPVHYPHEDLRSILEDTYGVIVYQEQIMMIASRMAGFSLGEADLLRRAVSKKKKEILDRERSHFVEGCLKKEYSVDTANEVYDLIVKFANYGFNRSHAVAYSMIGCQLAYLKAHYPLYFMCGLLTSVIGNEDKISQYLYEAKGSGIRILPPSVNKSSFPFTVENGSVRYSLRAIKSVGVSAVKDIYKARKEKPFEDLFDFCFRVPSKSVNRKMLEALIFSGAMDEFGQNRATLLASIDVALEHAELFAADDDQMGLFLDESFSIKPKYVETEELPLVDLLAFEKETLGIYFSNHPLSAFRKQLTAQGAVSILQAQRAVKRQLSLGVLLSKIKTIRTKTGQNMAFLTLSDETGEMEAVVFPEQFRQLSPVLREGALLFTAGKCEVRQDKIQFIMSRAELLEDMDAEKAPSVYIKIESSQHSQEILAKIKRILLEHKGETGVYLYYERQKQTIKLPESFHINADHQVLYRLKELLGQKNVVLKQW
In words: SPR; 5'-biotinylated primed DNA probe (30 mer annealed to 110 mer) immobilised on a streptavidin SA chip (about 100 RU); DnaE (35 nM) added with increasing concentrations of PykA (0-1000 nM), CAT or PEPut; Biacore T200, 200 uL/min, 25 °C, 25 mM NaCl, 25 mM MgCl2, 150 mM Tris-HCl pH 7.5, 1 mM DTT; maximum RU values fitted to a one site-specific binding curve. For orientation: In SPR one partner is held on a chip, and binding of the other changes the refractive index at the surface.

In data set [2] the target is DnaE polymerase (Bacillus subtilis, UniProt O34623 1-1115). In words: SPR; 25 mM MgCl2; DnaE 0-700 nM; SPR (Biacore T200, SA chip): 25 mM NaCl, 25 mM MgCl2, 150 mM Tris-HCl pH 7.5, 1 mM DTT, 25 °C. Particulars: protein: recombinant; label: 5' biotin on 110 mer (strand 1); 30 mer primer annealed to 110 mer template, ssDNA on both sides; 5' A of the primer may be near/at the CCCCCT junction.

Data set [3] deals with T2, PykA CAT domain (Bacillus subtilis, UniProt P80885 2-473).
T2 sequence: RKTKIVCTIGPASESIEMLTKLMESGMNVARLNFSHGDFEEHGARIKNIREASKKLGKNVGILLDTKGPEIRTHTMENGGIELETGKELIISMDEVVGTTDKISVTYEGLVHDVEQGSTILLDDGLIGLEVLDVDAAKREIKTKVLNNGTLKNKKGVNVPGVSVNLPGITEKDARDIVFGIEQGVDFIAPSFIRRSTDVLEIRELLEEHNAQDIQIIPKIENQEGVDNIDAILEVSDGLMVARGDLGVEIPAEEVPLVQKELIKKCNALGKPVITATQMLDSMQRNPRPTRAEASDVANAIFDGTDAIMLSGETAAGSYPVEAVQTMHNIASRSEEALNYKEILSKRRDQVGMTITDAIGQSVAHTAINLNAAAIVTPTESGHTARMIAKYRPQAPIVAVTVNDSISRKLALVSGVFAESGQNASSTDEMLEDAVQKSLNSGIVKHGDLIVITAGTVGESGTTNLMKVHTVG
In words: SPR; no DnaE; 25 mM MgCl2; SPR (Biacore T200, SA chip): 25 mM NaCl, 25 mM MgCl2, 150 mM Tris-HCl pH 7.5, 1 mM DTT, 25 °C. The following applies: protein: recombinant; tags: His-MBP removed by TEV; label: 5' biotin on 110 mer (strand 1); 30 mer primer annealed to 110 mer template, ssDNA on both sides; 5' A of the primer may be near/at the CCCCCT junction.

Data set [4] concerns the target T3, PykA PEPut domain (Bacillus subtilis, UniProt P80885 494-585).
T3 sequence: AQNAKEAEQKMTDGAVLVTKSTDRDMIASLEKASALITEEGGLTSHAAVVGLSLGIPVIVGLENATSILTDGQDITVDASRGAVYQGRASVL
The data set is described as above. The following applies: protein: recombinant; tags: His-MBP removed by TEV; label: 5' biotin on 110 mer (strand 1); 30 mer primer annealed to 110 mer template, ssDNA on both sides; 5' A of the primer may be near/at the CCCCCT junction.

For data set [5], the target named is T4, PykA pyruvate kinase (Bacillus subtilis, UniProt P80885 1-585).
T4 sequence: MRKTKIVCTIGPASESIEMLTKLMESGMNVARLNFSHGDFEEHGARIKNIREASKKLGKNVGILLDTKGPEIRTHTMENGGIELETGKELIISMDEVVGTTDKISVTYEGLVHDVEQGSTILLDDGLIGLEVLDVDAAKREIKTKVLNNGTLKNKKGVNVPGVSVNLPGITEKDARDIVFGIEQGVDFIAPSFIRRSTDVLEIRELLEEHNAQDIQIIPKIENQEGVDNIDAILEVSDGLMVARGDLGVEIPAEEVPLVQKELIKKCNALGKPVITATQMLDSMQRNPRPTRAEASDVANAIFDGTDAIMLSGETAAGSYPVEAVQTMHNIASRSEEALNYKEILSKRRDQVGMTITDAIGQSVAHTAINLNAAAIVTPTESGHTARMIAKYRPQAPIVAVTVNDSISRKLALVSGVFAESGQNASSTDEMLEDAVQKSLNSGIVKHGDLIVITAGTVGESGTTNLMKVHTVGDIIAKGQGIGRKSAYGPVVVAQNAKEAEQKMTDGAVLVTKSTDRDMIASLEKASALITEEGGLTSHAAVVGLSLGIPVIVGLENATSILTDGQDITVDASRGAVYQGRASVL
The description is as above. The following applies: protein: recombinant; tags: His-MBP removed by TEV; chain copies: 4; label: 5' biotin on 110 mer (strand 1); 30 mer primer annealed to 110 mer template, ssDNA on both sides; 5' A of the primer may be near/at the CCCCCT junction.

Data set [6] concerns the target DnaE polymerase;PykA pyruvate kinase (Bacillus subtilis;Bacillus subtilis, UniProt O34623;P80885 1-1115;1-585, |). In words: SPR; PykA titrated (0-1000 nM) onto DnaE (35 nM) on DNA; Kd is for PykA to DnaE-DNA complex; 25 mM MgCl2; SPR (Biacore T200, SA chip): 25 mM NaCl, 25 mM MgCl2, 150 mM Tris-HCl pH 7.5, 1 mM DTT, 25 °C. The following applies: protein: recombinant;recombinant; tags: ;His-MBP removed by TEV; copies: 1;4; label: 5' biotin on 110 mer (strand 1); 30 mer primer annealed to 110 mer template, ssDNA on both sides; 5' A of the primer may be near/at the CCCCCT junction.

Data set [7] concerns the target DnaE polymerase;PykA CAT domain (Bacillus subtilis;Bacillus subtilis, UniProt O34623;P80885 1-1115;2-473, |). In words: SPR; CAT titrated onto DnaE (35 nM) on DNA; Kd is for CAT to DnaE-DNA complex; 25 mM MgCl2; SPR (Biacore T200, SA chip): 25 mM NaCl, 25 mM MgCl2, 150 mM Tris-HCl pH 7.5, 1 mM DTT, 25 °C. Particulars: protein: recombinant;recombinant; tags: ;His-MBP removed by TEV; label: 5' biotin on 110 mer (strand 1); 30 mer primer annealed to 110 mer template, ssDNA on both sides; 5' A of the primer may be near/at the CCCCCT junction.

By Kd is commonly meant the constant that tells how readily two partners part at equilibrium. The molecule “CAT domain of B. subtilis PykA (domain or fragment)” yielded a Kd in data set [1] of 7.33 nM.

B1: B. subtilis pyruvate kinase PykA, full-length, wild type (enzyme, UniProt P80885 1-585, looked up)
chain: T4 sequence
notes: PykA pyruvate kinase, Bacillus subtilis; 1755 bp pykA fragment amplified from genomic DNA, cloned into p2CT; the same vector gives an N-terminal tag for PEPut; Tetramer: legends give 16 nM monomers as 4 nM tetramers; also called full-length PykA; wild-type PykA; source: E. coli Rosetta (DE3), purified (HisTrap IMAC, TEV cleavage, reverse IMAC, Superdex 200 gel filtration)
Turning to B1, binding in data set [1] (both partners purified) was characterised by a dissociation constant (Kd) of 14.6 nM.

B2: primed probe, 30 mer on 5'-biotinylated 110 mer (mixed)
DNA 1: CACACACACACACACACACACACACACACACACACACACACACACACACACACACACACCCCCTTTAAAAAAAAAAAAAAAAGCCAAAAGCAGTGCCAAGCTTGCATGCC
DNA 2: AGGGGGTGTGTGTGTGTGTGTGTGTGTGTG
Take B2: the Kd in data set [2] turned out to be 146 nM; in data set [6] it was 14.6 nM; in data set [7], 7.33 nM. In addition, the binding result in data set [3], in data set [4] and in data set [5] was “no binding” each time.
